Entries after “also recorded” stand apart in the source; their conditions may differ. Read-outs that look alike come from different tables or passages of the source.
Experiments:
[1] = Body weight and tolerability in the H292-HGF xenograft study; conditions: for toxicity / body weight loss / tolerability (in words): doses as in E46
Description: (§2) At the time of routine monitoring, the animals were checked for any effects of tumor growth and treatments on normal behavior, such as mobility, visual estimation of food and water consumption, body weight gain/loss (body weights were measured twice weekly), eye/hair matting and any other abnormal effect.
(§3) Animals for which the body weight loss exceeded 20%, or for which the mean tumor size of the group exceeds 2000 mm^3 were euthanized. The study was terminated after two weeks of observation after the final dose.

[2] = tested on: H292-HGF human lung cancer xenograft; experiment: Efficacy of bispecific molecule and other inhibitors in subcutaneous H292-HGF xenograft model; type: in vivo, SCID/Beige mice; conditions: for mean tumor size: ECB38 25 mg/kg; for antitumor activity (in words): doses as in E46
Description: The H292-HGF cells were maintained in vitro in RPMI1640 medium supplemented with fetal bovine serum (10% v/v), and L-glutamine (2 mM) at 37° C. in an atmosphere of 5% CO2 in air. The cells were routinely subcultured twice weekly by trypsin-EDTA treatment. The cells growing in an exponential growth phase were harvested and counted for tumor inoculation.
Each mouse was inoculated subcutaneously at the right flank region with H292-HGF tumor cells (2×10^6) in 0.1 ml of PBS with cultrex (1:1) for tumor development. The treatments were started when the mean tumor size reached 139 mm^3. […] The date of tumor cell inoculation was denoted as day 0.
Before commencement of treatment, all animals were weighed and the tumor volumes were measured. Since the tumor volume can affect the effectiveness of any given treatment, mice were assigned into groups using randomized block design based upon their tumor volumes. […] The randomized block design was used to assign experimental animals to groups. First, the experimental animals were divided into homogeneous blocks according to their initial tumor volume. Secondly, within each block, randomization of experimental animals to treatments was conducted.
The major endpoint was whether tumor growth can be delayed or tumor bearing mice can be cured. Tumor size was measured twice weekly in two dimensions using a caliper, and the volume was expressed in mm^3 using the formula: V=0.5 a×b^2 where a and b are the long and short diameters of the tumor, respectively. The tumor size was then used for calculations of both T−C and T/C values. T−C was calculated with T as the time (in days) required for the mean tumor size of the treatment group to reach 1000 mm^3, and C was the time (in days) for the mean tumor size of the control group to reach the same size. The T/C value (in percent) was an indication of antitumor efficacy; T and C were the mean volume of the treated and control groups, respectively, on a given day. Complete tumor regression (CR) is defined as tumors that are reduced to below the limit of palpation (62.5 mm^3). Partial tumor regression (PR) is defined as tumors that are reduced from initial tumor volume. A minimum duration of CR or PR in 3 or more successive tumor measurements is required for a CP or PR to be considered durable.
Statistical analyses of difference in tumor volume among the groups were evaluated using a one-way ANOVA followed by individual comparisons using Games-Howell (equal variance not assumed). All data were analyzed using SPSS 18.0. p<0.05 was considered to be statistically significant.

H292 cells = experiment: Inhibition of proliferation of H292 cells (HGF-induced); type: cell-based, human
Description: Inhibition of tumor cell proliferation can be measured using standard methods and methods described herein.
It was verified that the enhanced potency for inhibition of EGFR and c-Met phosphorylation with the bispecific EGFR/c-Met molecules translated into an enhanced inhibition of signaling and proliferation. […] The proliferation assay was completed using different combinations EGFR and c-Met binding FN3 domains either as a mixture or linked in a bispecific format. […] This confirmed that the avidity effect observed at the level of the receptors (FIG. 6 and FIG. 7) translates into an improvement in inhibiting cell signaling (Table 17) and cell proliferation (Table 18).
Select EGFR/c-Met molecules were characterized for their affinity to both EGFR and c-Met, their ability to inhibit EGFR and c-Met autophosphorylation, and their effect on proliferation of HGF cells. Binding affinity of the bispecific EGFR/c-Met molecules to recombinant EGFR and/or c-Met extracellular domain was further by surface Plasmon resonance methods using a Proteon Instrument (BioRad) according to protocol described in Example 3.

[3] = mouse, in vivo, ip
Description: SCID Beige mice were subcutaneously inoculated with NCI-H292 cells expressing human HGF (2.0×10^6 cells in Cultrex (Trevigen) in a volume of 200 μL) on the dorsal flank of each animal. Tumor measurements were taken twice weekly until tumor volumes ranged between 150-250 mm^3. […] At 6h or 72h after dosing, tumors were extracted and immediately frozen in liquid nitrogen. […] Immediately after collection, the blood samples were centrifuged and the resulting plasma was transferred to sample tubes and stored at −80° C. Tumors were weighed, cut into small pieces, and lysed in Lysing Matrix A tubes (LMA) containing RIPA buffer with HALT protease/phosphatase inhibitors (Pierce), 50 mM sodium fluoride (Sigma), 2 mM activated sodium orthovanadate (Sigma), and 1 mM PMSF (MesoScale Discovery). Lysates were removed from LMA matrix and centrifuged to remove insoluble protein. The soluble tumor protein was quantified with a BCA protein assay and diluted to equivalent protein levels in tumor lysis buffer. Phosphorylated c-Met, EGFR and ERK were measured using assay plates from MesoScale Discovery (according to Manufacturer's protocol and as described above).

[4] = tested on: H292-HGF tumor xenografts; experiment: Tumor efficacy study with bispecific EGFR/c-Met molecules of variable affinity; type: in vivo, SCID Beige mice; conditions: 25 mg/kg three times per week
Description: One week after implantation, mice were stratified into groups with equivalent tumor volumes (mean tumor volume=77.9+/−1.7 mm^3). Mice were dosed three times per week with the bispecific molecules and tumor volumes were recorded twice weekly.

[5] = mouse, in vivo
Description: as §2, §3

EGFR [6] = target: T1, EGFR (Homo sapiens, UniProt P00533); experiment: Inhibition of EGFR phosphorylation in NCI-H596 cells; type: cell-based; conditions: FIG. 7B
Description: (§1) NCI-H292, NCI-H441, or NCI-H596 cells were plated in 96 well plates in RPMI medium containing 10% FBS. 24 hours later, medium was replaced with serum free RPMI. […] Cells were treated for 1h with the monospecific or bispecific molecules and then stimulated with EGF, HGF, or a combination of EGF and HGF for 15 minutes at 37° C., 5% CO2. Cells were lysed with MSD Lysis Buffer and cell signaling was assessed using appropriate MSD Assay plates, according to manufacturer's instructions, as described above.

EGFR [7] = target: T1, EGFR; experiment: Inhibition of EGFR phosphorylation in NCI-H441 cells; type: cell-based; conditions: FIG. 7C
Description: as §1

EGFR [8] = target: T1, EGFR; experiment: Inhibition of EGFR phosphorylation in NCI-H292 cells; type: cell-based; conditions: FIG. 7A
Description: as §1
Purified bispecific PEG24-maleimide conjugates were tested for their ability to inhibit EGF-stimulated phosphorylation of EGFR in the human tumor cell line NCI-H292 (American Type Culture Collection, cat. #CRL-1848) using the EGFR phospho(Tyr1173) kit from Meso Scale Discovery (Gaithersburg, Md.) and as described in Example 3.

[9] = day 23 after tumor inoculation, Crizotinib 50 mg/kg, Erlotinib 50 mg/kg, Cetuximab 1 mg/mouse

## C#Cc1cccc(Nc2ncnc3cc(OCCOC)c(OCCOC)cc23)c1 [Erlotinib, erlotinib]
[1]
  toxicity / body weight loss / tolerability (in words): More severe body weight loss

## C[C@@H](Oc1cc(-c2cnn(C3CCNCC3)c2)cnc1N)c1c(Cl)ccc(F)c1Cl [Crizotinib, crizotinib]
[2]; day 9 after tumor inoculation, mean ± SEM, bispecific 25 mg/kg, Crizotinib 50 mg/kg, Erlotinib 50 mg/kg, Cetuximab 1 mg/mouse
  Tumor volume (mm^3): 217 ± 20 mm^3
[2]; day 13 after tumor inoculation, mean ± SEM, bispecific 25 mg/kg, Crizotinib 50 mg/kg, Erlotinib 50 mg/kg, Cetuximab 1 mg/mouse
  Tumor volume (mm^3): 547 ± 43 mm^3
[2]; day 16 after tumor inoculation, mean ± SEM, bispecific 25 mg/kg, Crizotinib 50 mg/kg, Erlotinib 50 mg/kg, Cetuximab 1 mg/mouse
  Tumor volume (mm^3): 914 ± 92 mm^3
[2]; day 20 after tumor inoculation, mean ± SEM, bispecific 25 mg/kg, Crizotinib 50 mg/kg, Erlotinib 50 mg/kg, Cetuximab 1 mg/mouse
  Tumor volume (mm^3): 1438 ± 239 mm^3
[2]; day 23, mean volume of treated vs control group, doses as in the Treatment column
  T/C (%): 120%
[2]; day 23, mean ± SEM, bispecific 25 mg/kg, Crizotinib 50 mg/kg, Erlotinib 50 mg/kg, combination 50 mg/kg + 50 mg/kg, Cetuximab 1 mg/mouse
  Tumor Size (mm^3) at day 23: 2102 ± 298 mm^3
[2]; [9]
  mean tumor size: 2,102 mm^3
[2]; day 23 after tumor inoculation, mean ± SEM, bispecific 25 mg/kg, Crizotinib 50 mg/kg, Erlotinib 50 mg/kg, Cetuximab 1 mg/mouse
  Tumor volume (mm^3): 2102 ± 298 mm^3
[2]
  antitumor activity (in words): no antitumor activity
[1]
  toxicity / body weight loss / tolerability (in words): More severe body weight loss

B1: ECB106: bispecific SEQ ID 65: P54AR4-83V23, (AP)5, P114AR7P94-A3v22 (protein)
chain: MLPAPKNLVVSEVTEDSARLSWDDPHAFYESFLIQYQESEKVGEAIVLTVPGSERSYDLTGLKPGTEYTVSIYGVHNVYKDTNIRGLPLSAIFTTAPAPAPAPAPLPAPKNLVVSRVTEDSARLSWTAPDAAFDSFWIRYFEFLGSGEAIVLTVPGSERSYDLTGLKPGTEYVVNILGVKGGKISPPLSAIFTT
modifications: bispecific EGFR/cMet binding molecule
H292 cells
  IC50: 484 nM

B2: ECB108: bispecific SEQ ID 67: P54AR4-83V23, (AP)5, P114AR9P122-A7v2 (protein)
chain: MLPAPKNLVVSEVTEDSARLSWDDPHAFYESFLIQYQESEKVGEAIVLTVPGSERSYDLTGLKPGTEYTVSIYGVHNVYKDTNIRGLPLSAIFTTAPAPAPAPAPLPAPKNLVVSRVTEDSARLSWTAPDAAFDSFWIRYFEFVSKGDAIVLTVPGSERSYDLTGLKPGTEYVVNILGVKGGSISPPLSAIFTT
modifications: bispecific EGFR/cMet binding molecule
H292 cells
  IC50: 11400 nM

B3: ECB109: bispecific SEQ ID 68: P54AR4-83V23, (AP)5, P114AR7P95-C5V2 (protein)
chain: MLPAPKNLVVSEVTEDSARLSWDDPHAFYESFLIQYQESEKVGEAIVLTVPGSERSYDLTGLKPGTEYTVSIYGVHNVYKDTNIRGLPLSAIFTTAPAPAPAPAPLPAPKNLVVSRVTEDSARLSWTAPDAAFDSFWIRYFEFLGSGEAIVLTVPGSERSYDLTGLKPGTEYVVNILSVKGGSISPPLSAIFTT
modifications: bispecific EGFR/cMet binding molecule
H292 cells
  IC50: 574 nM

B4: ECB107: bispecific SEQ ID 66: P54AR4-83V23, (AP)5, P114AR9P121-A6v2 (protein)
chain: MLPAPKNLVVSEVTEDSARLSWDDPHAFYESFLIQYQESEKVGEAIVLTVPGSERSYDLTGLKPGTEYTVSIYGVHNVYKDTNIRGLPLSAIFTTAPAPAPAPAPLPAPKNLVVSRVTEDSARLSWTAPDAAFDSFWIRYFEFVGSGEAIVLTVPGSERSYDLTGLKPGTEYVVNILGVKGGSISPPLSAIFTT
modifications: bispecific EGFR/cMet binding molecule
H292 cells
  IC50: 2640 nM

B5: ECB39: bispecific SEQ ID 121: P53A1R5-17V2, (AP)5, P114AR7P94-A3, linked to albumin binding domain (protein)
chain: MLPAPKNLVVSEVTEDSARLSWADPHGFYDSFLIQYQESEKVGEAIVLTVPGSERSYDLTGLKPGTEYTVSIYGVHNVYKDTNMRGLPLSAIFTTAPAPAPAPAPLPAPKNLVVSRVTEDSARLSWTAPDAAFDSFWIRYFEFLGSGEAIVLTVPGSERSYDLTGLKPGTEYVVNIMGVKGGKISPPLSAIFTTAPAPAPAPAPLAEAKVLANRELDKYGVSDYYKNLINNAKTVEGVKALLDEILAALP
modifications: Bispecific EGFR/c-Met binding molecule
[3]
  tumor accumulation (in words): significantly more tumor accumulation at 6 hours relative to the other molecules
[4]
  tumor growth / tumor growth inhibition (in words): showed the most efficacy

B6: ECB38: bispecific SEQ ID 120: P54AR4-83V2, (AP)5, P114AR7P94-A3, linked to albumin binding domain (protein)
chain: MLPAPKNLVVSEVTEDSARLSWDDPWAFYESFLIQYQESEKVGEAIVLTVPGSERSYDLTGLKPGTEYTVSIYGVHNVYKDTNMRGLPLSAIFTTAPAPAPAPAPLPAPKNLVVSRVTEDSARLSWTAPDAAFDSFWIRYFEFLGSGEAIVLTVPGSERSYDLTGLKPGTEYVVNIMGVKGGKISPPLSAIFTTAPAPAPAPAPLAEAKVLANRELDKYGVSDYYKNLINNAKTVEGVKALLDEILAALP
modifications: Bispecific EGFR/c-Met binding molecule
[2]; [9]
  mean tumor size: 23 mm^3
[2]
  antitumor activity (in words): complete tumor regression (CR) in all mice; also recorded: complete response
[1]; 25 mg/kg
  mice euthanized when BWL>20% during the treatment period: 3 mice
[1]; 25 mg/kg, 3 times/week x 3 weeks
  mice in which the treatment was tolerated: 7 out of 10
[5]
  toxicity / body weight loss / tolerability (in words): Slight toxicity
[4]
  tumor growth / tumor growth inhibition (in words): showed the most efficacy

B7: ECB5: bispecific SEQ ID 54: P53A1R5-17V2, (GGGGS)4, P114AR7P94-A3 (protein)
chain: MLPAPKNLVVSEVTEDSARLSWADPHGFYDSFLIQYQESEKVGEAIVLTVPGSERSYDLTGLKPGTEYTVSIYGVHNVYKDTNMRGLPLSAIFTTGGGGSGGGGSGGGGSGGGGSMLPAPKNLVVSRVTEDSARLSWTAPDAAFDSFWIRYFEFLGSGEAIVLTVPGSERSYDLTGLKPGTEYVVNIMGVKGGKISPPLSAIFTT
modifications: bispecific EGFR/cMet binding molecule
EGFR [6]
  inhibition of phosphorylation of EGFR, bispecific vs monospecific (in words): comparable
EGFR [7]
  decrease of IC50 for inhibition of EGFR phosphorylation compared to the monospecific EGFR-binding FN3 domain: 30 fold
EGFR [8]
  inhibition of phosphorylation of EGFR, bispecific vs monospecific (in words): comparable

Reference: patent publication US11702475B2, “Cysteine engineered fibronectin type III domain binding molecules” (Janssen Biotech, Inc., priority 2013, dated 2023)
